In assay [1] the target is T1, Med15 (Gal11), Mediator Tail module subunit (S. cerevisiae, UniProt P19659 1-1081).
T1 construct: Med15 (Gal11), S. cerevisiae, endogenous; source: endogenous, S. cerevisiae CB010 double-tagged strain; within the purified native holoenzyme
T1 sequence (looked up): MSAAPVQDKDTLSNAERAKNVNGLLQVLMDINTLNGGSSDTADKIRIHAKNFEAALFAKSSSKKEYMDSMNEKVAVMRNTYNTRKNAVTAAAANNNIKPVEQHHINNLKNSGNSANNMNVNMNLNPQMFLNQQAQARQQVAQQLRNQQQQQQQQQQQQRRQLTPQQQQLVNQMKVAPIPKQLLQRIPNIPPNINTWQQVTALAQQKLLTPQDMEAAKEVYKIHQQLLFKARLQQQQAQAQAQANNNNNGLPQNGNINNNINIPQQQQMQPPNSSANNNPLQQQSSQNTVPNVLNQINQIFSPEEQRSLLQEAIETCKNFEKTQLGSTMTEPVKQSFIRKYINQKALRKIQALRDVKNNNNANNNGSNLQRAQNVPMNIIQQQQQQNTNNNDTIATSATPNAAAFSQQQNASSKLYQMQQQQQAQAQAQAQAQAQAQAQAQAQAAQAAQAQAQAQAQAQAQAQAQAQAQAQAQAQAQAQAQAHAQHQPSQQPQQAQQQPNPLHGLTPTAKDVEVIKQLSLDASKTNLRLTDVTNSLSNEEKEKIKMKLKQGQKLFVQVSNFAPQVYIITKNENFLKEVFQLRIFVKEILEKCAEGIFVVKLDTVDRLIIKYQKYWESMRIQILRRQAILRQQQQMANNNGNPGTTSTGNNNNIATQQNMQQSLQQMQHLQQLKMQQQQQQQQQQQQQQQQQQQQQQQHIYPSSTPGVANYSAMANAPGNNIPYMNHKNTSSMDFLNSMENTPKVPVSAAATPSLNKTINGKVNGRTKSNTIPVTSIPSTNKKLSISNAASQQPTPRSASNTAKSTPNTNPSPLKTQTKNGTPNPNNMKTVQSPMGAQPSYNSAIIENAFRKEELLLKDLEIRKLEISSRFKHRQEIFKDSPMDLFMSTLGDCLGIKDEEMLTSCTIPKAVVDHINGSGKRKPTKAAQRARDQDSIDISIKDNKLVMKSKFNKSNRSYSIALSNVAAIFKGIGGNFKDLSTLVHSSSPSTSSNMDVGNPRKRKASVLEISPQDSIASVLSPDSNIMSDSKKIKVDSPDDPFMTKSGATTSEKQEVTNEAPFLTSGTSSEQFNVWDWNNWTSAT
The experiment in a line: cross-linking; BS3 (unlabeled, or 50:50 with 2H12-labeled BS3) on the purified native holoenzyme; 150 mM NaPO4, 150 mM KOAc, pH 7.5, 5% glycerol, 2 mM DTT; procedure A 2.7 mM reagent 120 min on ice; trypsin digest, LC-MS/MS, Protein Prospector. The following applies: both partners purified.

Assay [2] addresses T2, Med5 (Nut1), Mediator Tail module subunit (S. cerevisiae, UniProt P53114 1-1132).
T2 construct: Med5 (Nut1), S. cerevisiae, endogenous; source: endogenous, S. cerevisiae CB010 double-tagged strain; within the purified native holoenzyme
T2 sequence (looked up): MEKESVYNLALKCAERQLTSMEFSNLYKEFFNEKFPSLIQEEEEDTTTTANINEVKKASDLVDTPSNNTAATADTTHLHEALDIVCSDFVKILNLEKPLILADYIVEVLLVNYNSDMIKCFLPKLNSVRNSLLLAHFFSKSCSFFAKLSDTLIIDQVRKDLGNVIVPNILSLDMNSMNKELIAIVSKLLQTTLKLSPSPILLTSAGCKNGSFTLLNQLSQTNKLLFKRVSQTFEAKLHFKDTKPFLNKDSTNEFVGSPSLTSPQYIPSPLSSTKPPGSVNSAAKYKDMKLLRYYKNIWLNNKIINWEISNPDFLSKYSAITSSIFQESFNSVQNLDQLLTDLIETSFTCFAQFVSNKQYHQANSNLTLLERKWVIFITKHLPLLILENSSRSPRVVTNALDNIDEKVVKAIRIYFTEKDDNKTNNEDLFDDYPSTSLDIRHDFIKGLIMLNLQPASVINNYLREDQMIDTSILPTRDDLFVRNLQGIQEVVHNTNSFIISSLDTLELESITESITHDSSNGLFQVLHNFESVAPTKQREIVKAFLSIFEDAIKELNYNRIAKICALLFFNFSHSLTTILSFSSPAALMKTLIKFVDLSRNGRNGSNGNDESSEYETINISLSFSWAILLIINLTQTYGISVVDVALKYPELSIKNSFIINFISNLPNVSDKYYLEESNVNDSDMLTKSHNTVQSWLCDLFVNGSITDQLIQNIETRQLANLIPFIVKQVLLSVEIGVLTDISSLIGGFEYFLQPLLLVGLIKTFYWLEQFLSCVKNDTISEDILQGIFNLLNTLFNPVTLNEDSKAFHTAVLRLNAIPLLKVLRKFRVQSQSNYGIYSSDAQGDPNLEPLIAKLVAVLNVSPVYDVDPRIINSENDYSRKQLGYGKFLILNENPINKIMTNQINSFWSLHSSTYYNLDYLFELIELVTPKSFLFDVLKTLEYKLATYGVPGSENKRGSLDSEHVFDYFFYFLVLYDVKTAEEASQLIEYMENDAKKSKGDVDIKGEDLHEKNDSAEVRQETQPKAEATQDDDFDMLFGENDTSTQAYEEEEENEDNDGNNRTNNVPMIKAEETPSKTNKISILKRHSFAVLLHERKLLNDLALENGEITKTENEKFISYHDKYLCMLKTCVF
Described as above. The following applies: both partners purified.

B1: Med16 (Sin4), Mediator Tail module subunit (natural protein, S. cerevisiae, UniProt P32259 1-974, looked up)
chain: MMLGEHLMSWSKTGIIAYSDSQSSNANICLTFLESINGINWRFHTPQKYVLHPQLHEVQYQESSSTLSTHSTTTSVNGSTTAGVGSTPNFGGNSNKSPPQFFYNISSIHWNNWFSLPGDMLAVCDELGNMTMLITGQRPDRATTYEKLTMVFQDNVYKIYNHVMPLKPVDKLKPMNIERKQTRKEYNTSILEFRWLTSSKSVIVSQFCAFDSSSNTYRSRAQQVPPYGVYHPPFIKYACLAIRKNGQIDFWYQFSNSKDHKKITLQLLDTSNQRFKDLQWLEFARITPMNDDQCMLITTYSKLSKNISFYKLHVNWNLNATKPNVLNDPSLKIQFILSTTLDPTDDEGHVLKLENLHVVSKSSIEKDPSPEILVLYNVCDTSKSLVKRYRLAPTQLSAEYLVILKPDLNIDRNNSTNQIFQSRRYNLRRHSDIVLDKKVTLITSEMFDAFVSFYFEDGTIESYNQNDWKLETERLISQSQLGKFKNIIASPLSAGFNYGKLPLPPSVEWMKVSPSMCGVIVKQYNKKWPQFYAAVQKNYADPEKDSINATALAFGYVKSLHKQISAEDLTIAAKTHILRISFLDRKRAKEFITTLLKSLYSFFNISPDAPKEIMDKIITSRPLQKIMLLQLELGSCFSQENIEEMARVILYLKNVLFAFNGVARNFHFAIEQISNNSNQQQNPKLFQTIFSKQDLIHSLIPVAKWFVKFITYLTQEILILINDPTNKEYTLVHGIFGAKMSRTLILSILNEIKKVTQIVAKFPETSYPILNESSTFLKLVLSESPVDFEKFETFLVDVNNKFIALCEQQPSQEREFSLLVKAEIPPEYAKVGDFLLQYANNAVISHANAAAVYFADTSGLKISNSEFFNPEIFHLLQPLEEGLIIDTDKLPIKNRTSKSFSKLLYDDVTCDKLSVSEISDGKLKRCSRCGSVTRAGNIISSDKTIVPTSIQTKRWPTMYTRLCICSGMLFEMDG
notes: Med16 (Sin4), S. cerevisiae, endogenous; source: endogenous, S. cerevisiae CB010 double-tagged strain; within the purified native holoenzyme
As for B1, the binding result in assay [1] and in assay [2] was “binds” in each case.

For the origin of these results see article PMC4631838, “Molecular architecture of the yeast Mediator complex” (eLife, 2015).
